A word on the Km: it is the substrate concentration at which the rate is half of its maximum. Broadly, the kcat/Km is the turnover number divided by the Michaelis constant.

Data set [1] deals with Cc1cn([C@H]2C[C@H](O)[C@@H](COP(=O)(O)OP(=O)(O)O[C@H]3O[C@H](C)C(=O)[C@H](O)[C@H]3O)O2)c(=O)[nH]c1=O. Nature of the data set: purified protein. To be noted: pH 7.5.
The data set “crystal structure” concerns the molecule itself. Briefly: crystal structure.

On to “EvaD (AoEvaD) (Amycolatopsis orientalis)”, for which, in data set [1], the Michaelis constant (Km) was determined as 632 ± 98 µM and the kcat/Km worked out at 630 ± 70 M⁻¹ s⁻¹.

In the case of “RmlC (EcRmlC; E. coli RfbC) (Escherichia coli K-12)”, in data set [1], the Michaelis-Menten constant (Km) was 830 ± 40 µM and the specificity constant (kcat/Km) came out at 6600 ± 200 M⁻¹ s⁻¹.

On to StrM (SgStrM) (Streptomyces griseus), for which, in data set [1], the Km was 600 ± 40 µM and the kcat/Km is 9100 ± 400 M⁻¹ s⁻¹.

B1: Streptomyces griseus StrM (TDP-sugar 3'',5''-epimerase, RmlC ortholog) (enzyme, UniProt P29783 1-200, looked up)
chain: MRPLSVQGAWLSETRAFADDRGEFQELYSARSLRGALGYDPGVAQVNRSVSRRGVLRGVHFAQLPPSQAKYVTCLSGAVLDVVVDIRTGSPTYRAWEAVRLDDPHRSLYVEAGLGHSFMALTDDAVVVYLTSQGYAAGREHGVHPLDPDLGIAWPDGIEPVLSEKDRQAPGIAEMERRGLLPDYEECLAFRRSLCERGTG
notes: also called SgStrM
As to B1, the binding result in “crystal structure” is “binds”.
